Measured values from patent US20100227772.
Read-outs that look alike come from different tables or passages of the source.

Test system: Antennapedia homeodomain (YPWM motif + homeodomain, Antp residues 297-364 in plasmid pAop3)
Details: FCCS

Row | Substance | Kd (average of 3 saturation curves, single curve of FIG. 3 gives 8.6 nM) | Kd (average of 10 saturation curves, single curve of FIG. 2 gives 6.3 nM)
1 | BS2 (16 bp) | 5.1 nM | 
2 | HB1 (36 bp) |  | 3.6 nM
